Measured values published in patent US20040203101A1 (Human Genome Sciences, published 2004).

Legend:
human two-chain tPA [1] = target: T1, human two-chain tPA (human, UniProt P00750 36-310; P00750 311-562); assay: comparison of rates of inhibition; reference PN-1 with tPA
T1 construct: Two-chain (cleaved) form; also called tctPA

human two-chain tPA [2] = target: T1, human two-chain tPA; assay: comparison of rates of inhibition; reference PAI-1 with tPA
thrombin = thrombin (Homo sapiens (Human), UniProt P00734 328-363; P00734 364-622); assay: kinetic constants for the interaction of BAIT with proteinases; method not described
human single-chain tPA = target: T2, human single-chain tPA (human, UniProt P00750 36-562); assay: as above
T2 construct: also called sctPA
T2 sequence (P00750 36-562 limits assumed): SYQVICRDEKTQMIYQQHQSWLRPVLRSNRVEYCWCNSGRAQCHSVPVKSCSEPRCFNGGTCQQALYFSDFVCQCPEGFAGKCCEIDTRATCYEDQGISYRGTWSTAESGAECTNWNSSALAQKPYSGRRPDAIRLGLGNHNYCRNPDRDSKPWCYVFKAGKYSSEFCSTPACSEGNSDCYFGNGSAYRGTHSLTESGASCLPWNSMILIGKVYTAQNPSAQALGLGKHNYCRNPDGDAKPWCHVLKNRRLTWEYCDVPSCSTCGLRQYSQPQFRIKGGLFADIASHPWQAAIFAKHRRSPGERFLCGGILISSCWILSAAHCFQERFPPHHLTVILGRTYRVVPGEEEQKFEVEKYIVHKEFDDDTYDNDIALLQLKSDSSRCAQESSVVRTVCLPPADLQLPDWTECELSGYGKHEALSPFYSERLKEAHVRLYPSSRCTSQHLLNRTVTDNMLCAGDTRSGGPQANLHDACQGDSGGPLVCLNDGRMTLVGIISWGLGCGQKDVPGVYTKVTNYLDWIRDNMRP

[3] = target: T3, human high molecular weight uPA (human, UniProt P00749 21-431); assay: as above
T3 construct: also called uPA-H

bovine beta trypsin [4] = target: T4, bovine beta trypsin (bovine, UniProt P00760 24-246); assay: as above
T4 construct: also called β-trypsin
T4 sequence (P00760 24-246 limits assumed): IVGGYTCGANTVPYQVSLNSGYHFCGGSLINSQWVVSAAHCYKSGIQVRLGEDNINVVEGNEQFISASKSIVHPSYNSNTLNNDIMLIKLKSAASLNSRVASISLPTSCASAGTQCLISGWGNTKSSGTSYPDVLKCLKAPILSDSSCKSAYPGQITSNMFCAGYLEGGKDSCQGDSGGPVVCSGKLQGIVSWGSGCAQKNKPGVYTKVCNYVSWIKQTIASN

human two-chain tPA [5] = target: T1, human two-chain tPA; assay: as above
[6] = target: human low molecular weight uPA (human, UniProt P00749 156-431); assay: as above
plasmin = plasmin (Homo sapiens (Human), UniProt P00747 97-580; P00747 581-810, Two chains joined by disulfide bonds after cleavage of plasminogen at Arg580-Val581 (precursor count).); assay: as above
Sequence of plasmin (P00747 97-580 limits assumed, form in doubt, chain 1 of 2): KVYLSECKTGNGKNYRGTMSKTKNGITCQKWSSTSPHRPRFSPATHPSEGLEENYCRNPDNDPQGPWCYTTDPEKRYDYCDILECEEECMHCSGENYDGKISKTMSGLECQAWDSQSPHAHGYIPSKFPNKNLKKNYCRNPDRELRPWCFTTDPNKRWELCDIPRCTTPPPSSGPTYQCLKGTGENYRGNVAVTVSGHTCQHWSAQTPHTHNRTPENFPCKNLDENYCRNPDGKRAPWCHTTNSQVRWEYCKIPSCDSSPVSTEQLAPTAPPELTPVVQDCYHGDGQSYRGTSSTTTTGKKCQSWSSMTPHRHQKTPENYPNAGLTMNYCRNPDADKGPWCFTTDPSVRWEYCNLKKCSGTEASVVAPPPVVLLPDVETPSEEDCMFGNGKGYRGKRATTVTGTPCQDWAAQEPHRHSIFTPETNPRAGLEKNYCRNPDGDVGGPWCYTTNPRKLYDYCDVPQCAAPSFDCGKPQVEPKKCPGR
Sequence of plasmin (P00747 581-810 limits assumed, form in doubt, chain 2 of 2): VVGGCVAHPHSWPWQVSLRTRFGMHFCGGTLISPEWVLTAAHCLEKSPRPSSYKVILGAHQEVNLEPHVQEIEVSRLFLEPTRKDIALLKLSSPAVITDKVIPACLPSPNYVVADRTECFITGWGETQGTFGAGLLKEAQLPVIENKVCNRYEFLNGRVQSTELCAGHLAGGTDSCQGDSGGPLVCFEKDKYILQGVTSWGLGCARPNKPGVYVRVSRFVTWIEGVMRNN

bovine beta trypsin [7] = target: T4, bovine beta trypsin; assay: cell-based or functional assay
[8] = target: tissue-type plasminogen activator, tPA (Genentech) (human, UniProt P00750 36-562); assay: cell-based or functional assay
Sequence of tissue-type plasminogen activator, tPA (Genentech) (P00750 36-562 limits assumed): as the sequence (P00750 36-562 limits assumed) above

[9] = target: urokinase-type plasminogen activator, uPA (Serono) (UniProt P00749 21-431, limits assumed); assay: cell-based or functional assay
human two-chain tPA [10] = target: T1, human two-chain tPA; assay: comparison of rates of inhibition from Table I; reference BAIT with uPA

T1 sequence (P00750 36-310 limits assumed, chain 1 of 2): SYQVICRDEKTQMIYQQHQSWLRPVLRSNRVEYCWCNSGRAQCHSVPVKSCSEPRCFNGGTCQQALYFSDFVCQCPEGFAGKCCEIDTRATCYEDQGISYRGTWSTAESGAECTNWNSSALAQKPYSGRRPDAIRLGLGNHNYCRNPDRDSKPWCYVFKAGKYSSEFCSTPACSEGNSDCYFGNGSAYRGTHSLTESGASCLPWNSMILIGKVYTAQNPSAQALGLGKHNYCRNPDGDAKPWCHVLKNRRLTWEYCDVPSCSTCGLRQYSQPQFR
T1 sequence (P00750 311-562 limits assumed, chain 2 of 2): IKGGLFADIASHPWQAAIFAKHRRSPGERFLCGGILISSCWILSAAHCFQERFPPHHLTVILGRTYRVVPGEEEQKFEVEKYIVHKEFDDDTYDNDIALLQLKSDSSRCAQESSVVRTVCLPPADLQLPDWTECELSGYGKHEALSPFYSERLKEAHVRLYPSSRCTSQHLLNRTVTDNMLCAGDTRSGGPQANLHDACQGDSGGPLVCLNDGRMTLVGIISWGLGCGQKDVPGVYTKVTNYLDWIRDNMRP

B1: human BAIT (Brain-Associated Inhibitor of Tissue-Type Plasminogen Activator), mature protein expressed in baculovirus/Sf9 cells and purified (other)
chain: ATFPEEAIADLSVNMYNRLRATGEDENILFSPLSIALAMGMMELGAQGSTQKEIRHSMGYDSLKNGEEFSFLKEFSNMVTAKESQYVMKIANSLFVQNGFHVNEEFLQMMKKYFNAAVNHVDFSQNVAVANYINKWVENNTNNLVKDLVSPRDFDAATYLALINAVYFKGNWKSQFRPENTRTFSFTKDDESEVQIPMMYQQGEFYYGEFSDGSNEAGGIYQVLEIPYEGDEISMMLVLSRQEVPLATLEPLVKAQLVEEWANSVKKQKVEVYLPRFTVEQEIDLKDVLKALGITEIFIKDANLTGLSDNKEIFLSKAIHKSFLEVNEEGSEAAAVSGMIAISRMAVLYPQVIVDHPFFFLIRNRRTGTILFMGRVMHPETMNTSGHDFEEL
modifications: glycosylated (positions not stated)
notes: The preparation has mixed N-termini (also called BAIT protein); neural serpin
fold faster reaction with tPA than PN-1 (human two-chain tPA [1]): ~20 fold
fold slower reaction with tPA than PAI-1 (human two-chain tPA [2]): ~30 fold
K (thrombin): 0.64 µM
k (thrombin): 0.000131 s⁻¹
ki (thrombin): 210 M⁻¹ s⁻¹
K (human single-chain tPA): 2.1 µM
k (human single-chain tPA): 0.17 s⁻¹
ki (human single-chain tPA): 80000 M⁻¹ s⁻¹
K [3]: 0.2 µM
k [3]: 0.005 s⁻¹
ki [3]: 25000 M⁻¹ s⁻¹
K (bovine beta trypsin [4]): 0.16 µM
k (bovine beta trypsin [4]): 0.0096 s⁻¹
ki (bovine beta trypsin [4]): 59000 M⁻¹ s⁻¹
K (human two-chain tPA [5]): 0.12 µM
k (human two-chain tPA [5]): 0.078 s⁻¹
ki (human two-chain tPA [5]): 620000 M⁻¹ s⁻¹
K [6]: 1.4 µM
k [6]: 0.013 s⁻¹
ki [6]: 9200 M⁻¹ s⁻¹
K (plasmin): 0.15 µM
k (plasmin): 5.2e-05 s⁻¹
ki (plasmin): 360 M⁻¹ s⁻¹
half-maximal inhibitory concentration (IC50) of proteolytic activity, single step chromogenic assay (bovine beta trypsin [7]): 700 nM
half-maximal inhibitory concentration (IC50) of proteolytic activity, single step chromogenic assay [8]: 200 nM
half-maximal inhibitory concentration (IC50) of proteolytic activity, single step chromogenic assay [9]: 1000 nM
fold faster rate of inhibition of tPA than of uPA (human two-chain tPA [10]): ~25 fold
